Experimental findings from patent US20030180282A1, “Method of treatment of thrombotic events” (priority 2002, published 2003) are described below.

Experiment [1] concerns platelets. Nature of the experiment: PFA-100 platelet function analyzer, closure time. The experiment is classed as cell-based, human. As to conditions: TNK 12 μg/mL, t-PA 4 μg/mL. On the procedure:
(§1) Blood samples for the in vitro study were obtained from 9 healthy volunteers. None of the subjects smoked or had hypertension, diabetes, or an abnormal hematocrit. None had received aspirin or any other antiplatelet drugs. All subjects underwent blood sampling after at least 30 minutes of rest and 2 or more hours of fasting. Blood was drawn from an antecubital vein between 8 am and 10 am in order to avoid any diurnal influence. A 21-gauge butterfly needle was used to draw blood into a tube containing 3.8% sodium citrate (1:9 volume); the first 1.5 mL of free running blood was discarded. One tube was kept as an internal control. A second tube was incubated with tenecteplase (TNK) for 30 minutes at room temperature in order to achieve a final concentration of 12 μg/mL. The third tube was similarly incubated with alteplase (t-PA) to achieve a concentration of 4 μg/mL. The concentrations of TNK and t-PA that were chosen approximated conventional plasma levels observed in patients receiving TNK and t-PA bolus (30 mg, and 15 mg, respectively; data on file, Genentech, Inc., South San Francisco, Calif.). Fresh solutions of TNK and t-PA were prepared in Dulbecco's phosphate buffered saline (DPBS) ex tempore on the morning of the platelet studies.
The PFA-100™ (Dade Behring, Deerfield, Ill.) is a high shear-inducing platelet function analyzer that simulates primary hemostasis after injury to a small vessel under flow conditions (see, e.g. Kundu, S. K. et al. (1996) Clin. Appl. Thromb. Hemost. 2:241-249). The device provides a constant negative pressure that aspirates a whole blood-citrate mixture, which comes into contact with a collagen-coated membrane and then passes through an aperture. The time required to obtain occlusion of the aperture is digitally recorded and is a measure of shear-induced platelet aggregation.
For all comparisons, statistical analyses were done by using repeated measures ANOVA. […] Normally distributed data were expressed as mean±SE, and skewed data as median (range). […]

In experiment [2] the test system is platelets. Nature of the experiment: flow cytometry of platelet surface receptor expression in AMI patients during first 24 hours after r-PA or t-PA. The experiment is classed as in vivo, human. From the text:
Twenty-three consecutive patients admitted to the emergency rooms of St. Agnes Hospital, or the Union Memorial Hospital between July and December of 1996 with a diagnosis of acute myocardial infarction were included. All patients were enrolled in the randomized trial of Reteplase (r-PA) versus accelerated Alteplase (t-PA) for the treatment of acute myocardial infarction, (GUSTO-III trial).
Blood samples for PA, and for flow cytometric studies were taken at prespecified intervals as follows: in the emergency room immediately before administration of the thrombolytic therapy and then in the coronary care unit at 3 hours, 6 hours, 12 hours, and finally at 24 hours after initiation of the r-PA or t-PA therapy.
Thirteen patients randomized to r-PA received a double bolus, 10+10 MU thirty minutes apart. Ten patients received t-PA in the accelerated regimen as a 15 mg bolus, then 0.75 mg/kg over 30 minutes, and then 0.50 mg/kg over 60 minutes. During the baseline sampling every patient had received 325 mg of aspirin and each day thereafter, at least 5,000 U of intravenous heparin. Following the administration of thrombolytic therapy all patients received a continuous infusion of heparin for the first 24 hours following thrombolysis as recommended in the GUSTO-III protocol.
The schedule of blood drawing, sample preparation and processing were critical issues of the study design, and were monitored by an independent observer. The actual timing of blood collection for the baseline sample was 9.5±1.4 minutes before the start of thrombolytic therapy; 174.6±21.8 minutes for the 3 hours sample; 371.1±24.2 minutes for 6 hours sample; 709.4±17.8 minutes for 12 hours sample; and 1402.9±18.8 minutes for 24 hours sample. Samples were processed within one hour after blood drawing. […] The reasons for early termination were as follows: patient transfer for emergency coronary angioplasty (3 patients), and inability to obtain blood sample (1 patient). Twenty three baseline samples; twenty two samples collected at 3 hours; twenty samples collected at 6 hours; twenty samples collected at 12 hours; and nineteen samples collected at 24 hours were included in the study analysis.
For flow cytometric analysis, venous blood (8 ml) was collected in a plastic tube containing 2 ml of acid-citrate-dextrose (ACD) (7.3 g citric acid, 22.0 g sodium citrate ×2H2O and 24.5 glucose in 1000 ml distilled water) and mixed well. The blood-ACD mixture was centrifuged at 1000 r.p.m. for 10 minutes at room temperature. The upper ⅔ of the platelet-rich plasma (PRP) was then collected and adjusted to pH=6.5 by adding ACD. The PRP was then centrifuged at 3000 r.p.m. for 10 minutes. The supernatant was removed and the platelet pellet was gently resuspended in 4 cc of the washing buffer (10 mM Tris/HCl, 0.15 M NaCl, 20 mM EDTA, pH=7.4). Platelets were washed 4 times in the washing buffer, and an additional four times in TBS (10 mM Tris, 0.15 M NaCl, pH=7.4). All cells were then divided into ten plastic capped tubes. Nine portions of washed platelets were incubated with 5 μl fluorescein isothiocyanate (FITC)-conjugated antibodies in the dark at +4° C. for 30 minutes, and one part remained unstained and served as a negative control. Surface antigen expression was measured with monoclonal murine anti-human antibodies: CD9 (p24); CD41a (IIb/IIIa, (IIb(3); CD42b (Ib); CD61(IIIa) (DAKO Corporation, Carpinteria Calif.); CD49b (VLA-2, or (2(1); CD62p (P selectin); CD31 (PECAM-1); CD 41b (IIb); and CD51/CD61 (vitronectin receptor, (v(3) (PharMingen, San Diego Calif.). After incubation, the cells were washed three times with TBS and resuspended in 0.25 ml of 1% paraformaldehyde. Samples were stored in the refrigerator at +4° C., and analyzed on a Becton Dickinson FACScan™ flow cytometry with laser output of 15 mw, excitation at 488 mm, and emission detection at 530±30 nm. […]
(In general: A flow cytometer gives signals particle by particle.)

Experiment [3] concerns platelets. Kind of experiment: rapid platelet-function assay (Ultegra). The class given is cell-based, human. As to conditions: TNK 12 μg/mL, t-PA 4 μg/mL. On the procedure:
as §1
With rapid platelet-function assay (RPFA (Ultegra®); Accumetrics, Inc., San Diego, Calif.), polystyrene beads coated with fibrinogen are placed in a cartridge along with a peptide that activates the thrombin receptor. A whole blood citrate mixture is added to the cartridge, and agglutination between platelets and coated beads is recorded. The data mirror turbidometric platelet aggregation and reflect the degree of platelet glycoprotein IIb/IIIa blockade.
For all comparisons, statistical analyses were done by using repeated measures ANOVA. Post hoc comparison was performed by use of the Bonferroni t-test to identify specific differences in platelet aggregation and receptor expression between patients treated with TNK and t-PA, and controls. […] Normally distributed data were expressed as mean±SE, and skewed data as median (range). […]

B1: t-PA: recombinant tissue plasminogen activator, thrombolytic agent (Genentech) (protein, UniProt P00750 36-562, looked up)
Tissue-type plasminogen …: SYQVICRDEKTQMIYQQHQSWLRPVLRSNRVEYCWCNSGRAQCHSVPVKSCSEPRCFNGGTCQQALYFSDFVCQCPEGFAGKCCEIDTRATCYEDQGISYRGTWSTAESGAECTNWNSSALAQKPYSGRRPDAIRLGLGNHNYCRNPDRDSKPWCYVFKAGKYSSEFCSTPACSEGNSDCYFGNGSAYRGTHSLTESGASCLPWNSMILIGKVYTAQNPSAQALGLGKHNYCRNPDGDAKPWCHVLKNRRLTWEYCDVPSCSTCGLRQYSQPQFRIKGGLFADIASHPWQAAIFAKHRRSPGERFLCGGILISSCWILSAAHCFQERFPPHHLTVILGRTYRVVPGEEEQKFEVEKYIVHKEFDDDTYDNDIALLQLKSDSSRCAQESSVVRTVCLPPADLQLPDWTECELSGYGKHEALSPFYSERLKEAHVRLYPSSRCTSQHLLNRTVTDNMLCAGDTRSGGPQANLHDACQGDSGGPLVCLNDGRMTLVGIISWGLGCGQKDVPGVYTKVTNYLDWIRDNMRP
Consider B1, for which the “closure time (PFA-100) compared with DPBS” value in experiment [1] is recorded as “prolongation”. For the same molecule, in experiment [2] (12 hours), the “glycoprotein IIIa expression compared to baseline” value was “not after t-PA therapy” and the “glycoprotein Ib expression compared to baseline” value was “significant inhibition”. The “platelet vitronectin receptor expression” value in experiment [2] (12 hours after thrombolysis) is reported as “significant increase”. For the same molecule, in experiment [2] (24 hours), the “glycoprotein IIIa expression compared to baseline” value is “not after t-PA therapy”, the “glycoprotein IIb/IIIa expression compared to baseline” value is “elevated” and the “p24 (CD 9) expression compared to baseline” value is listed as “higher”. Besides, the “platelet vitronectin receptor expression” value in experiment [2] (24 hours after thrombolysis) is reported as “trended toward the baseline”. Further, the “P-selectin expression, early change” value in experiment [2] (early) is reported as “early significant decrease”. Further, the “p24 (CD 9) expression compared to baseline” value in experiment [2] (early time points) is recorded as “no early receptor inhibition”. Further, the “P-selectin expression, later change” value in experiment [2] (following the early decrease) was “significant increase”. Also, in experiment [3], the “platelet activation units (Ultegra) compared with DPBS” value is listed as “reduction”.
